{
  "source": "paper PMC6379675",
  "about": "“Structural insights into chromosome attachment to the nuclear envelope by an inner nuclear membrane protein Bqt4 in fission yeast” (Nucleic Acids Research, 2018)",
  "binders": {"B1": {"name": "Rap1_(498–512) (peptide)", "peptide": "GPLDDEEAFEKQVTSSYS", "notes": "three extra residues left at the N-terminus after removal of GST by 3C protease; also called Rap1BBM (in the crystal); source: E. coli BL21(DE3), purified (glutathione-Sepharose 4B, on-beads 3C digestion, Superdex75); not shown: GST, N-terminal, cleaved"}, "B2": {"name": "Rap1_(479–527) S497E (domain or fragment, S. pombe, UniProt Q96TL7 479-527, looked up)", "chain": "EIPLLSDYSDSENISEKSEDDEEAFEKQVTSSYSSPIKVKSQGKSSKGS", "notes": "phosphomimetic; also called Rap1^S497E; source: E. coli BL21(DE3), purified (glutathione-Sepharose 4B, on-beads 3C digestion, Superdex75); not shown: GST, N-terminal, cleaved"}, "B3": {"name": "Rap1_(479–527) S513E (domain or fragment, S. pombe, UniProt Q96TL7 479-527, looked up)", "chain": "B2 chain with E19S, S35E", "notes": "phosphomimetic; also called Rap1^S513E; source: E. coli BL21(DE3), purified (glutathione-Sepharose 4B, on-beads 3C digestion, Superdex75); not shown: GST, N-terminal, cleaved"}, "B4": {"name": "GST-tagged Rap1_(490–513) (peptide, UniProt Q96TL7 490-513, looked up)", "chain": "ENISEKSSDDEEAFEKQVTSSYSS", "notes": "also called GST-Rap1BBM; source: E. coli BL21(DE3); not shown: GST, N-terminal, kept"}},
  "key": {"[1]": {"molecular_target": "T1, SUMO_(21–92)-Bqt4_(8–140) fusion protein (S. pombe, UniProt O60158 8-140)", "T1 construct": "Bqt4, S. pombe, residues 8-140; crystallisation fusion; also called SUMO-Bqt4NTD; Sumo-fused Bqt4_(8–140); not shown: SUMO (residues 21-92), N-terminal, kept", "T1 sequence (looked up)": "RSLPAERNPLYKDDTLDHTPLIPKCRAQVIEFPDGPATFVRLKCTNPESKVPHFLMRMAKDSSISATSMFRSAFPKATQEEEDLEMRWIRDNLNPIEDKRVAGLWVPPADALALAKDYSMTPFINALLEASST", "experiment": "crystal structure; Bqt4 construct and peptide mixed at a molar ratio of 1:1.5; molecular replacement", "conditions": "both partners purified"}, "Bqt4NTD R33A, O60158": {"molecular_target": "T2, Bqt4NTD R33A, O60158", "T2 chain": "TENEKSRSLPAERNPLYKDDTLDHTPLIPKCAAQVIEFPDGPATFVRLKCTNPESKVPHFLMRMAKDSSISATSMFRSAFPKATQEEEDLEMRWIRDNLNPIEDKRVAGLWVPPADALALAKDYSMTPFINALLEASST", "experiment": "ITC", "conditions": "chain shown with the change;; parent: 11.4 ± 1.2"}, "[2]": {"molecular_target": "T3, Bqt4_(2–140), N-terminal domain of Bqt4 (S. pombe, UniProt O60158 2-140)", "T3 chain": "T2 chain with A32R", "experiment": "ITC"}, "[3]": {"molecular_target": "T4, Bqt4_(2–140), N-terminal domain of Bqt4 (S. pombe, UniProt O60158 2-140)", "T4 construct": "Bqt4, S. pombe inner nuclear membrane protein, residues 2-140; also called Bqt4NTD; Bqt4NTD^WT; source: E. coli BL21(DE3), purified (Ni-NTA, on-beads Ulp1 digestion, Superdex200); not shown: His6, N-terminal, cleaved; SUMO, N-terminal, cleaved", "T4 sequence (looked up)": "T2 chain with A32R", "experiment": "ITC; ITC200; peptide (Rap1 479-527 at 1000–1500 μM) titrated into Bqt4 2-140 (100–150 μM), 20°C, 20 mM Tris–HCl pH 8.0, 150 mM NaCl; one binding site model; two independent experiments", "conditions": "both partners purified"}, "Bqt4NTD R33A": {"molecular_target": "T5, Bqt4NTD R33A (S. pombe, UniProt O60158 2-140, R33A)", "T5 construct": "Bqt4, S. pombe, residues 2-140; also called Bqt4 (R33A); source: E. coli BL21(DE3), purified (Ni-NTA, on-beads Ulp1 digestion, Superdex200); not shown: His6, N-terminal, cleaved; SUMO, N-terminal, cleaved", "T5 sequence (looked up)": "T2 chain", "experiment": "ITC; ITC200; peptide (Rap1 479-527 at 1000–1500 μM) titrated into Bqt4 2-140 (100–150 μM), 20°C, 20 mM Tris–HCl pH 8.0, 150 mM NaCl; one binding site model; two independent experiments", "conditions": "both partners purified"}, "Bqt4NTD D90R, O60158": {"molecular_target": "T6, Bqt4NTD D90R, O60158", "T6 chain": "T2 chain with A32R, D89R", "experiment": "ITC", "conditions": "chain shown with the change;; parent: 11.4 ± 1.2"}, "Bqt4NTD D90R": {"molecular_target": "T7, Bqt4NTD D90R (S. pombe, UniProt O60158 2-140, D90 into arginine)", "T7 construct": "Bqt4, S. pombe, residues 2-140; also called Bqt4^D90 substituted into arginine; source: E. coli BL21(DE3), purified (Ni-NTA, on-beads Ulp1 digestion, Superdex200); not shown: His6, N-terminal, cleaved; SUMO, N-terminal, cleaved", "T7 sequence (looked up)": "T2 chain with A32R, D89R", "experiment": "ITC; ITC200; peptide (Rap1 479-527 at 1000–1500 μM) titrated into Bqt4 2-140 (100–150 μM), 20°C, 20 mM Tris–HCl pH 8.0, 150 mM NaCl; one binding site model; two independent experiments", "conditions": "both partners purified"}, "[4]": {"molecular_target": "T4, Bqt4_(2–140), N-terminal domain of Bqt4", "experiment": "pull-down; 30 μg GST-tagged Rap1 and 20 μg purified Bqt4 on glutathione-Sepharose 4B beads, 25 mM Tris pH 8.0, 100 mM NaCl, 10% glycerol, 4°C, 40 min; SDS-PAGE", "conditions": "both partners purified"}, "Bqt4_(2–180)": {"molecular_target": "T8, Bqt4_(2–180) (S. pombe, UniProt O60158 2-180)", "T8 construct": "Bqt4, S. pombe, residues 2-180; also called N-terminal region of Bqt4; source: E. coli BL21(DE3), purified (Ni-NTA, on-beads Ulp1 digestion, Superdex200); not shown: His6, N-terminal, cleaved; SUMO, N-terminal, cleaved", "T8 sequence (looked up)": "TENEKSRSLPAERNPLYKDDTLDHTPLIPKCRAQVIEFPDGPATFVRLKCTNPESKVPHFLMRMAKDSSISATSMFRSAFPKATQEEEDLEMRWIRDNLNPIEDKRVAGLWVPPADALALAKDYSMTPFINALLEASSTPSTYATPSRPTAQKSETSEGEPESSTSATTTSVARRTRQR", "experiment": "pull-down; 30 μg GST-tagged Rap1 and 20 μg purified Bqt4 on glutathione-Sepharose 4B beads, 25 mM Tris pH 8.0, 100 mM NaCl, 10% glycerol, 4°C, 40 min; SDS-PAGE", "conditions": "both partners purified"}},
  "note": "Substitutions are numbered along the chain they refer to. Names and notes keep the numbering of the source.",
  "data": [
    {"binder": "B1", "values": [
      {"measurement": "binding result", "setting": "[1]", "value": "binds"}
    ]},
    {"binder": "B2", "values": [
      {"measurement": "Kd", "setting": "Bqt4NTD R33A, O60158", "value": 24.1, "unit": "µM"},
      {"measurement": "Kd", "setting": "[2]", "value": 2.6, "unit": "µM"},
      {"measurement": "binding result", "setting": "[3]", "value": "binds"},
      {"measurement": "binding result", "setting": "Bqt4NTD R33A", "value": "binds"}
    ]},
    {"binder": "B3", "values": [
      {"measurement": "Kd", "setting": "Bqt4NTD D90R, O60158", "value": 21.2, "unit": "µM"},
      {"measurement": "Kd", "setting": "[2]", "value": 57.8, "unit": "µM"},
      {"measurement": "fold decrease in binding affinity against wild-type Rap1", "setting": "[3]", "value": 5, "unit": "fold"},
      {"measurement": "binding result", "setting": "Bqt4NTD D90R", "value": "binds"}
    ]},
    {"binder": "B4", "values": [
      {"measurement": "binding result", "setting": "[4]", "value": "binds"},
      {"measurement": "binding result", "setting": "Bqt4_(2–180)", "value": "binds"}
    ]}
  ]
}
